60 sequences from the supplement of paper PMC7877785 can be followed below.

± gives the uncertainty stated by the source.

This data set in a line: self-splicing fitness, log relative to wild type (ln ratio); higher = more splicing; Tetrahymena group I intron in knt gene, E. coli kanamycin selection, DiMSum; sequences stand for … in CUCUCU…GGAGGGAAAAGUUAUCAGGCAUGCACCUGGUAGCUAGUCUUUAAACCAAUAGAUUGCAUCGGUUUAAAAGGCAAGACCGUCAAAUUGCGGGAAAGGGGUCAACAGCCGUUCAGUACCAAGUCUCAGGGGAAACUUUGAGAUGGCCUUGCAAAGGGUAUGGUAAUAAGCUGACGGACAUGGUCCUAACCACGCAGCCAAGUCCUAAGUCAACAGAUCUUCUGUUGAUAUGGAUGCAGUUCACAGACUAAAUGUCGGUCGGGGAAGAUGUAUUCUUCUCAUAAGAUAUAGUCGGACCUCUCCUUAAUGGGAGCUAGCGGAUGAAGUGAUGCAACACUGGAGCCGCUGGGAACUAAUUUGUAUGCGAAAGUAUAUUGAUUAGUUUUGGAGUACUCGUGGUCG
The gist of the method:
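DiMSum derived fitness as the error-weighted combination of fold changes across replicates, kanamycin versus no kanamycin, normalised to wild type. E. coli BL21(DE3) held the library, which randomised all eight P1ex-region intron nucleotides within the knt kanamycin-resistance gene on pET-22b(+). Six replicate transformations grew overnight at 37°C or 30°C on LB agar with or without 25 μg/mL kanamycin, also containing 100 μg/mL carbenicillin, 50 μM IPTG and 0.2% rhamnose, and pooled colonies were amplicon-sequenced on an Illumina HiSeq 2500.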

Turning to AUCAAGCAAUAUUACGGAAU, the “self-splicing fitness (ln)” value (30 °C) is -1.94 ± 0.071 and the “self-splicing fitness (ln)” value (37 °C) was -1.03 ± 0.083.
Taken in the same sequence, the figures for CACGAGCAAUAUUACGAGUA were -2.53 ± 0.16 and -2.11 ± 0.22.
As to UUGGAGCAAUAUUACGUUCA, the “self-splicing fitness (ln)” value was -2.45 ± 0.4 (30 °C) and -1 ± 0.31 (37 °C).
Taken in the same sequence, the figures for GAUAAGCAAUAUUACGCCAA were -1.91 ± 0.2 and -2.16 ± 0.22.
Take AGUUAGCAAUAUUACGGUAU: the “self-splicing fitness (ln)” value is, setting by setting: (30 °C) -2.69 ± 0.13; (37 °C) -1.34 ± 0.13.
For CCCAAGCAAUAUUACGUACG, the “self-splicing fitness (ln)” value is -3.55 ± 0.21 (30 °C) and -2.9 ± 0.15 (37 °C).
Take GCAAAGCAAUAUUACGACCG: the “self-splicing fitness (ln)” value is -0.859 ± 0.14 (30 °C) and -1.26 ± 0.25 (37 °C).
For CUGCAGCAAUAUUACGUGUG, the “self-splicing fitness (ln)” value runs as follows: (30 °C) -1.65 ± 0.043; (37 °C) -1.27 ± 0.06.
Taken in the same sequence, the figures for GCGGAGCAAUAUUACGUCUU were -2.3 ± 0.22 and -0.899 ± 0.22.
The like results for AGCAAGCAAUAUUACGCAGG were, in that order, -2.95 ± 0.16 and -1.63 ± 0.12.
Turning to UUAAAGCAAUAUUACGAACC, the “self-splicing fitness (ln)” value is, setting by setting: (30 °C) -1.34 ± 0.18; (37 °C) -0.963 ± 0.23.
With GGACAGCAAUAUUACGACGC, the “self-splicing fitness (ln)” value by setting is: (30 °C) -0.126 ± 0.065; (37 °C) 0.658 ± 0.11.
Take GCUCAGCAAUAUUACGUGCC: under “37 °C”, the “self-splicing fitness (ln)” value was -2.56 ± 0.23.
Regarding GUUGAGCAAUAUUACGCAUG, the “self-splicing fitness (ln)” value was -2.87 ± 0.16 (30 °C) and -1.18 ± 0.16 (37 °C).
Taken in the same sequence, the figures for ACCUAGCAAUAUUACGAGAC were -3.14 ± 0.4 and -1.89 ± 0.24.
Turning to CAGCAGCAAUAUUACGAAGA, the “self-splicing fitness (ln)” value is -2.72 ± 0.31 (30 °C) and -2.6 ± 0.38 (37 °C).
With UCAGAGCAAUAUUACGGUGC, the “self-splicing fitness (ln)” value was -3.88 ± 0.35 (30 °C) and -0.485 ± 0.15 (37 °C).
The like results for AGGGAGCAAUAUUACGGCGG were, in that order, -2.87 ± 0.21 and -2.73 ± 0.3.
On to GCCUAGCAAUAUUACGUAGA, for which the “self-splicing fitness (ln)” value is, setting by setting: (30 °C) -1.73 ± 0.16; (37 °C) 0.22 ± 0.13.
As for AUCCAGCAAUAUUACGUGCU, the “self-splicing fitness (ln)” value is -2.83 ± 0.17 (30 °C) and -2.88 ± 0.31 (37 °C).
Taken in the same sequence, the figures for GUAGAGCAAUAUUACGUGGG were -2.75 ± 0.17 and -2.08 ± 0.2.
As for CGUGAGCAAUAUUACGCUUC, the “self-splicing fitness (ln)” value was -3.91 ± 0.41 (30 °C) and -3.07 ± 0.43 (37 °C).
On to CCCGAGCAAUAUUACGAGGA, for which the “self-splicing fitness (ln)” value (30 °C) was -2.48 ± 0.17 and the “self-splicing fitness (ln)” value (37 °C) is -0.976 ± 0.11.
CUACAGCAAUAUUACGACCU: the “self-splicing fitness (ln)” value runs as follows: (30 °C) -4.15 ± 0.46; (37 °C) -0.863 ± 0.17.
Taken in the same sequence, the figures for CCCAAGCAAUAUUACGCCUC were -2.93 ± 0.25 and -2.93 ± 0.34.
In the case of AACCAGCAAUAUUACGAUUA, the “self-splicing fitness (ln)” value is, setting by setting: (30 °C) -0.368 ± 0.056; (37 °C) -0.164 ± 0.067.
Turning to GACCAGCAAUAUUACGCAAU, the “self-splicing fitness (ln)” value is, setting by setting: (30 °C) -0.846 ± 0.062; (37 °C) -0.343 ± 0.077.
As for AAUCAGCAAUAUUACGUCUG, the “self-splicing fitness (ln)” value reads like this: (30 °C) -1.16 ± 0.049; (37 °C) -0.895 ± 0.065.
Consider AGCGAGCAAUAUUACGUCCA, for which the “self-splicing fitness (ln)” value runs as follows: (30 °C) -2.59 ± 0.15; (37 °C) -1.1 ± 0.15.
On to GCCCAGCAAUAUUACGUAGC, for which the “self-splicing fitness (ln)” value was -0.413 ± 0.07 (30 °C) and -0.216 ± 0.079 (37 °C).
As for GACAAGCAAUAUUACGCCUU, the “self-splicing fitness (ln)” value runs as follows: (30 °C) -1.15 ± 0.14; (37 °C) -1.04 ± 0.13.
Turning to GGUGAGCAAUAUUACGGCAG, for the setting “30 °C”, the “self-splicing fitness (ln)” value is -2.25 ± 0.32.
Turning to ACGUAGCAAUAUUACGUUGU, the “self-splicing fitness (ln)” value was -3.07 ± 0.11 (30 °C) and -2.01 ± 0.14 (37 °C).
The like results for AUCUAGCAAUAUUACGAGGA were, in that order, -2.83 ± 0.32 and -2.01 ± 0.21.
Consider CUCUAGCAAUAUUACGAACU, for which the “self-splicing fitness (ln)” value (37 °C) was -4.2 ± 0.42.
For GCUUAGCAAUAUUACGAAUA, the “self-splicing fitness (ln)” value (30 °C) was -2.05 ± 0.25 and the “self-splicing fitness (ln)” value (37 °C) was -0.645 ± 0.18.
The like results for GCAUAGCAAUAUUACGCCGU were, in that order, -3.07 ± 0.15 and -1.83 ± 0.14.
On to AGGUAGCAAUAUUACGACCG, for which the “self-splicing fitness (ln)” value by setting is: (30 °C) -0.101 ± 0.02; (37 °C) 0.197 ± 0.039.
The like results for AGAUAGCAAUAUUACGGAAG were, in that order, -3.57 ± 0.22 and -2.02 ± 0.19.
With CCUAAGCAAUAUUACGGCUG, the “self-splicing fitness (ln)” value by setting is: (30 °C) -3.49 ± 0.21; (37 °C) -2.47 ± 0.3.
For the sequence UCUAAGCAAUAUUACGUCCU, the “self-splicing fitness (ln)” value was -2.72 ± 0.28 (30 °C) and -0.964 ± 0.21 (37 °C).
Consider AUCAAGCAAUAUUACGAUGG, for which the “self-splicing fitness (ln)” value was -3.43 ± 0.26 (30 °C) and -2.67 ± 0.2 (37 °C).
Consider UUGGAGCAAUAUUACGUUAA, for which the “self-splicing fitness (ln)” value (30 °C) was -2.09 ± 0.25 and the “self-splicing fitness (ln)” value (37 °C) was -1.91 ± 0.25.
As for GACAAGCAAUAUUACGCGUG, the “self-splicing fitness (ln)” value was -2.54 ± 0.076 (30 °C) and -0.344 ± 0.071 (37 °C).
Taken in the same sequence, the figures for AAAAAGCAAUAUUACGCAGA were -2.35 ± 0.15 and -1.86 ± 0.14.
Taken in the same sequence, the figures for CUGUAGCAAUAUUACGUUAC were -2.77 ± 0.34 and -1.72 ± 0.32.
Take UCACAGCAAUAUUACGUCCC: the “self-splicing fitness (ln)” value was -4.32 ± 0.42 (30 °C) and -2.01 ± 0.45 (37 °C).
For AGACAGCAAUAUUACGCGGU, the “self-splicing fitness (ln)” value (30 °C) is -3.61 ± 0.21 and the “self-splicing fitness (ln)” value (37 °C) is -2.4 ± 0.22.
Regarding GUCCAGCAAUAUUACGUGAU, the “self-splicing fitness (ln)” value is -0.729 ± 0.047 (30 °C) and -0.345 ± 0.071 (37 °C).
For AUGUAGCAAUAUUACGACGC, the “self-splicing fitness (ln)” value runs as follows: (30 °C) -0.952 ± 0.12; (37 °C) 0.119 ± 0.082.
Taken in the same sequence, the figures for AGCCAGCAAUAUUACGUUCA were -3.21 ± 0.15 and -2.72 ± 0.18.
The like results for UUCCAGCAAUAUUACGGCUA were, in that order, 0.12 ± 0.12 and -0.25 ± 0.1.
With CAUCAGCAAUAUUACGUACA, the “self-splicing fitness (ln)” value was -2.24 ± 0.14 (30 °C) and -1.92 ± 0.16 (37 °C).
Taken in the same sequence, the figures for ACCUAGCAAUAUUACGCCGC were -2.21 ± 0.32 and -2.05 ± 0.4.
Take GAGAAGCAAUAUUACGAGUU: the “self-splicing fitness (ln)” value reads like this: (30 °C) -1.95 ± 0.12; (37 °C) -1.63 ± 0.13.
The like results for GUUGAGCAAUAUUACGACUA were, in that order, -2.4 ± 0.18 and -2.85 ± 0.22.
The like results for UGAAAGCAAUAUUACGGGAU were, in that order, -2.6 ± 0.18 and -3.48 ± 0.39.
Taken in the same sequence, the figures for UGUGAGCAAUAUUACGCGCC were -2.07 ± 0.17 and -1.9 ± 0.38.
With CCCGAGCAAUAUUACGUCAG, the “self-splicing fitness (ln)” value is, setting by setting: (30 °C) -3.49 ± 0.15; (37 °C) -2.51 ± 0.17.
Taken in the same sequence, the figures for AACCAGCAAUAUUACGCUUU were -1.42 ± 0.084 and -1.05 ± 0.09.
